Assay results as given in patent US20100062512A1 (CRUCELL HOLLAND B V, published 2010).

Biological target: T1, Factor XI from DEAE treated human plasma (human, UniProt P03951 19-625)
T1 construct: mature; Plasma-derived, not purified when it was loaded on the Protein G column; also called FXI
Assay: Protein G column chromatography of 25 ml DEAE treated human plasma
Description: Therefore, 25 ml DEAE treated human plasma was subjected to a 1 ml Protein G column, to which IgG's selectively bound while more than 99% of the loaded Factor XI appeared in the flowthrough. Thus, a biological fluid containing Factor XI and depleted of IgG's was obtained.

T1 sequence (P03951 19-625 limits assumed): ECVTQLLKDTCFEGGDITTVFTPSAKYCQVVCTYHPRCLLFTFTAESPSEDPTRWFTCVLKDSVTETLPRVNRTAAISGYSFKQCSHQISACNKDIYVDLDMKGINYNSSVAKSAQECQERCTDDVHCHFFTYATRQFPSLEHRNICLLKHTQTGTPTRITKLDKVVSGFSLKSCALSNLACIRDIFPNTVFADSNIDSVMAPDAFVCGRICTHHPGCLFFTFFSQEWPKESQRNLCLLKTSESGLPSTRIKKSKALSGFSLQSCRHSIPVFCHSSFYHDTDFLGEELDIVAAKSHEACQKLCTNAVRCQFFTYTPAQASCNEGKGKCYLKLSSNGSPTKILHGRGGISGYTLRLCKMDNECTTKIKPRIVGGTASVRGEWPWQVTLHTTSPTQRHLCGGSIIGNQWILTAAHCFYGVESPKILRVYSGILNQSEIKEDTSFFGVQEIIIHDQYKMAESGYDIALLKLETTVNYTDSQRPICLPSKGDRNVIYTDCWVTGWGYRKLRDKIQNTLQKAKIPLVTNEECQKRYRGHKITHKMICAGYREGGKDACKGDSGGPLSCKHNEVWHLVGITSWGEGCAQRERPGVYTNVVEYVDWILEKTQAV

B1: Protein G (1 ml Protein G column) (other, UniProt P19909 303-497, looked up)
chain: TYKLILNGKTLKGETTTEAVDAATAEKVFKQYANDNGVDGEWTYDDATKTFTVTEKPEVIDASELTPAVTTYKLVINGKTLKGETTTEAVDAATAEKVFKQYANDNGVDGEWTYDDATKTFTVTEKPEVIDASELTPAVTTYKLVINGKTLKGETTTKAVDAETAEKAFKQYANDNGVDGVWTYDDATKTFTVTE
notes: Immobilised Protein G
B1: no binding (tested: more than 99% in flowthrough).
